In IntAct's records for PubMed 36931259:

B1: 14-3-3 protein sigma (Homo sapiens), P31947 (parent)
chain: MERASLIQKAKLAEQAERYEDMAAFMKGAVEKGEELSCEERNLLSVAYKNVVGGQRAAWRVLSSIEQKSNEEGSEEKGPEVREYREKVETELQGVCDTVLGLLDSHLIKEAGDAESRVFYLKMKGDYYRYLAEVATGDDKKRIIDSARSAYQEAMDISKKEMPPTNPIRLGLALNFSVFHYEIANSPEEAISLAKTTFDEAMADLHTLSEDSYKDSTLIMQLLRDNLTLWTADNAGEEGGEAPQEPQS
partner: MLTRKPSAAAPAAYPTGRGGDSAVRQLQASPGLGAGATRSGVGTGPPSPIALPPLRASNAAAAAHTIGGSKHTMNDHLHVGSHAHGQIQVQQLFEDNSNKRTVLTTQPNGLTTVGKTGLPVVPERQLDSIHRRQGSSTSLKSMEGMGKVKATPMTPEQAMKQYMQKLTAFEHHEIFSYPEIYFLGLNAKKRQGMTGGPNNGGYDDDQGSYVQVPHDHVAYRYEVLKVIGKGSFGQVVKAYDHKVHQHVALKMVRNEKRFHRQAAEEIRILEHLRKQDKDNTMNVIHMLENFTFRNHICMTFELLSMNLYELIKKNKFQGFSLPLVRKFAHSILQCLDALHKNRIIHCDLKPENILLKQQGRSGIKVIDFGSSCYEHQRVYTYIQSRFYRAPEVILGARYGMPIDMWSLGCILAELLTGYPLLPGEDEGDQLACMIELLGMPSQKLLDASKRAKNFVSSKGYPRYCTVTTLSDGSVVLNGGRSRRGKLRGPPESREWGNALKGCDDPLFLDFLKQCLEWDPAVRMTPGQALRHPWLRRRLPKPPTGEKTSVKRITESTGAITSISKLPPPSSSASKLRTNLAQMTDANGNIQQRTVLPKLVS
B2: 14-3-3 protein sigma (Homo sapiens), P31947 (parent)
chain: B1 chain
partner: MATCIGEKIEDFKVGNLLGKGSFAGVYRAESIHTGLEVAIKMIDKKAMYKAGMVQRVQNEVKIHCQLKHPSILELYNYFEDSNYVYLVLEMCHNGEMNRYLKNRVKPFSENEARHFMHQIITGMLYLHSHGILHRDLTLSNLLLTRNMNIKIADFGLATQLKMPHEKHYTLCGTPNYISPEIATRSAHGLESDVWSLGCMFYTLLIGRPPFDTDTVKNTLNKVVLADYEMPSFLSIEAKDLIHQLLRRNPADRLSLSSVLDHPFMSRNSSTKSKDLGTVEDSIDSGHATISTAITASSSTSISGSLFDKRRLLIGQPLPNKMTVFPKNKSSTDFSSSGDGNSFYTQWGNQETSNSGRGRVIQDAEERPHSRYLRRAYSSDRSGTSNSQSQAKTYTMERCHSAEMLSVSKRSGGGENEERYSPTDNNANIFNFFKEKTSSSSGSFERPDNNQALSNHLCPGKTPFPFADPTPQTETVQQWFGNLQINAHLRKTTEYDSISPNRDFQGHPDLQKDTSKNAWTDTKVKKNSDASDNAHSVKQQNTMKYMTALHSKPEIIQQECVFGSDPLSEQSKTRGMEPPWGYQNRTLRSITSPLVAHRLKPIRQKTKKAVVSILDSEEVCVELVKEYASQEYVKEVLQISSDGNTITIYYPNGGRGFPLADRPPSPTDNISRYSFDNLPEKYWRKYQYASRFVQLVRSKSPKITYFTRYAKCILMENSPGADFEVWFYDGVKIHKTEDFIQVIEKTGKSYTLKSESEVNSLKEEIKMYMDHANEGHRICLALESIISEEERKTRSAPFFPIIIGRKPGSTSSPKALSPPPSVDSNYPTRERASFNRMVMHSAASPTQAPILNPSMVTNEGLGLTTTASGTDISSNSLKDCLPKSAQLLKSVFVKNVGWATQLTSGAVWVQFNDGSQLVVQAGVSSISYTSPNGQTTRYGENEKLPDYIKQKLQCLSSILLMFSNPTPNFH
B3: 14-3-3 protein sigma (Homo sapiens), P31947 (parent)
chain: B1 chain
partner: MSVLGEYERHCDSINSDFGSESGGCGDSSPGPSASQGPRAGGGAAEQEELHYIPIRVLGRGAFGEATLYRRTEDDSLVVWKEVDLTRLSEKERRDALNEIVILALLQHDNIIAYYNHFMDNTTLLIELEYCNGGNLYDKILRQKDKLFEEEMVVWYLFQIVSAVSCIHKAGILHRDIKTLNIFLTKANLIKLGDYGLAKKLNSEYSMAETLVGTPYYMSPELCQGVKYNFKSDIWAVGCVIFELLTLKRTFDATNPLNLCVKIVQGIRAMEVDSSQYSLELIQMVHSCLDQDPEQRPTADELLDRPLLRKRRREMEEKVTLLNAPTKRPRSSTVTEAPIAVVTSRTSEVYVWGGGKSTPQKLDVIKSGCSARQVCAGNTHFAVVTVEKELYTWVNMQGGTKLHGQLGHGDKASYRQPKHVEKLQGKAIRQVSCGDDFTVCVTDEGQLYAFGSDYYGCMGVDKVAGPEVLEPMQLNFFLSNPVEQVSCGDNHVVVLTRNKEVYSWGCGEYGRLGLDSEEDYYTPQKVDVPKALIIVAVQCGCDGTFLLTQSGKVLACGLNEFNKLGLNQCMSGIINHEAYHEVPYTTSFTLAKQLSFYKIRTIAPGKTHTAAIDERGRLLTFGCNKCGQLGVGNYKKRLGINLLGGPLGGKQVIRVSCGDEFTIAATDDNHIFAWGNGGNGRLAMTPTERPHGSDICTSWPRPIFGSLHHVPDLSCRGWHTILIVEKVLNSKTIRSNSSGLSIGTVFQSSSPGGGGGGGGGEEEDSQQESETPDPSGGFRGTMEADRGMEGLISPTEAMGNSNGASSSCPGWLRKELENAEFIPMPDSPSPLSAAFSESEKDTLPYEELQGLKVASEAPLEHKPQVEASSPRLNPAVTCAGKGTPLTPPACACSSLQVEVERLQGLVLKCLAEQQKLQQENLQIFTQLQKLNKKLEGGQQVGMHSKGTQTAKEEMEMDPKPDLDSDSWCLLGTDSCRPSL
B4: 14-3-3 protein sigma (Homo sapiens), P31947 (parent)
chain: B1 chain
partner: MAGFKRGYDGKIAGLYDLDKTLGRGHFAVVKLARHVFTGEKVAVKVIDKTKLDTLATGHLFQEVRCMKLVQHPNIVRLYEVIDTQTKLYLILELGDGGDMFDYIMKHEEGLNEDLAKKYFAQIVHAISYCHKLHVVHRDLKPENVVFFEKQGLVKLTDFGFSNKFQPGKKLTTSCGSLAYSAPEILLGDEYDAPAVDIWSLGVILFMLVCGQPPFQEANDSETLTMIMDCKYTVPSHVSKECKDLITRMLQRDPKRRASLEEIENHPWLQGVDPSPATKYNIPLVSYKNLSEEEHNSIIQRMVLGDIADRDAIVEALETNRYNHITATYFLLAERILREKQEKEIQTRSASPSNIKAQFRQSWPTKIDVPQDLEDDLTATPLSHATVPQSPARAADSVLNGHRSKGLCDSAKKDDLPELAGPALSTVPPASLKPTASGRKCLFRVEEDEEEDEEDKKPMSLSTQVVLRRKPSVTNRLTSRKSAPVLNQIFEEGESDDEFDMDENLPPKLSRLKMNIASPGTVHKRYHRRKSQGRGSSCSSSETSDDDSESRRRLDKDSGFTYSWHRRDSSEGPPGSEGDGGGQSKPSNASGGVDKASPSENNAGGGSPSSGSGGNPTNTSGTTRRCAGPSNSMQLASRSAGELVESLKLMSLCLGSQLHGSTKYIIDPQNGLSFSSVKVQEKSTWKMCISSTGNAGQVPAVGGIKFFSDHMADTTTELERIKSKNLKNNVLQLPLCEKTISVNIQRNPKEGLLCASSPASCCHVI
B5: 14-3-3 protein sigma (Homo sapiens), P31947 (parent)
chain: B1 chain
partner: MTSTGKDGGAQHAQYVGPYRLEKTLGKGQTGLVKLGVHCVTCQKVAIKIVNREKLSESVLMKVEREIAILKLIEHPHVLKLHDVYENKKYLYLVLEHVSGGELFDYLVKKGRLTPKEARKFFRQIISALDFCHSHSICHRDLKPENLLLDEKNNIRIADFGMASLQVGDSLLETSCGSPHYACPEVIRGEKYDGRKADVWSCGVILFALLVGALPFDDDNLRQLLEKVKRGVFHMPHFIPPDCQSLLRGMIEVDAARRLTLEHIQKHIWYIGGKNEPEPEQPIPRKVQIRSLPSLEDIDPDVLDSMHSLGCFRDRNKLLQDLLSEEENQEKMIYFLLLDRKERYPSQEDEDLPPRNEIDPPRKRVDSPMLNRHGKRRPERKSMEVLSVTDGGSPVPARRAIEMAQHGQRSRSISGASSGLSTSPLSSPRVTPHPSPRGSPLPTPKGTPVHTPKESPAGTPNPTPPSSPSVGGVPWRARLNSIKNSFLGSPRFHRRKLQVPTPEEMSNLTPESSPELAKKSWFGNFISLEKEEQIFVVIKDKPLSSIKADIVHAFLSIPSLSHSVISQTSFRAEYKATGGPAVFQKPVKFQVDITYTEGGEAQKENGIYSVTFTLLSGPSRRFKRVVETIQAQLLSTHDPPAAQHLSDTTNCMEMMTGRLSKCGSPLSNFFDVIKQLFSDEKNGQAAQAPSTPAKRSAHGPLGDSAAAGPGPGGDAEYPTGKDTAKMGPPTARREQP
B6: 14-3-3 protein sigma (Homo sapiens), P31947 (parent)
chain: B1 chain
partner: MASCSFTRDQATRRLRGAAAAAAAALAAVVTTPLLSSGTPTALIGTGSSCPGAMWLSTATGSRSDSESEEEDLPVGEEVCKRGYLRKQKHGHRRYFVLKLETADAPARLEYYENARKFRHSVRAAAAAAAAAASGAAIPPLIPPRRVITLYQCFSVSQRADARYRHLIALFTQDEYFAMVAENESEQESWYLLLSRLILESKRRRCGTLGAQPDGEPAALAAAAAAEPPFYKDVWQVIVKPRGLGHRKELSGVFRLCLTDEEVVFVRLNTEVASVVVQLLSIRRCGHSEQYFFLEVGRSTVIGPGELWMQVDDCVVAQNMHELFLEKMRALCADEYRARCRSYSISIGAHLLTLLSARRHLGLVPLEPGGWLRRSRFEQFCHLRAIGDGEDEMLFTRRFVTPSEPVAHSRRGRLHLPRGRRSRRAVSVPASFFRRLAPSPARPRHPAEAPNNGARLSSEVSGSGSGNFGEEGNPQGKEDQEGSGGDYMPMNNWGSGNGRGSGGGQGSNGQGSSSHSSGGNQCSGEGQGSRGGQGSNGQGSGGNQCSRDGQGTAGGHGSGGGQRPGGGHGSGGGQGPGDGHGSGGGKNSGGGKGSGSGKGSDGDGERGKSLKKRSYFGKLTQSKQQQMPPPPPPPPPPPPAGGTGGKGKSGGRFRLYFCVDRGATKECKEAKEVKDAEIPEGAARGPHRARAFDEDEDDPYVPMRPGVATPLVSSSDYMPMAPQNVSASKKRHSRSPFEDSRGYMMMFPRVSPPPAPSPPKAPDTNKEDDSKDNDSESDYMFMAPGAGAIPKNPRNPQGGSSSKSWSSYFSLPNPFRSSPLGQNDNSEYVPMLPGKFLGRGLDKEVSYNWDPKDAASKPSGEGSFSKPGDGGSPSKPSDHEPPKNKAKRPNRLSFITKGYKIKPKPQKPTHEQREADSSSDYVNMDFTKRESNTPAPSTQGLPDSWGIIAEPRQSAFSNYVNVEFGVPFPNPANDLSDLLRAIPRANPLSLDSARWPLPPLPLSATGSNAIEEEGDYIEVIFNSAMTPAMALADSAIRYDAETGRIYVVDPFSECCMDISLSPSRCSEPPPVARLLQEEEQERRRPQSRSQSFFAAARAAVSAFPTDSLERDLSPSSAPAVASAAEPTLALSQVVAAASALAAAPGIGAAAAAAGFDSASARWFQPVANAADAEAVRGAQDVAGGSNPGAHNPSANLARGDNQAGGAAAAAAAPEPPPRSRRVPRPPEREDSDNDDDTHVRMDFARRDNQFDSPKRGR

Variants of: B1
Conditions: with dyrk2_human DYRK2, Q92630

Variant | effect of a mutation on the interaction
K49E;R56E;V178D | decreasing interaction strength

Variants of: B2
Conditions: with plk4_human PLK4, O00444

Variant | effect of a mutation on the interaction
K49E;R56E;V178D | decreasing interaction strength

Variants of: B3
Conditions: with nek9_human NEK9, Q8TD19

Variant | effect of a mutation on the interaction
K49E;R56E;V178D | decreasing interaction strength

Variants of: B4
Conditions: with snrk_human SNRK

Variant | effect of a mutation on the interaction
K49E;R56E;V178D | decreasing interaction strength

Variants of: B5
Conditions: with brsk2_human BRSK2, Q8IWQ3

Variant | effect of a mutation on the interaction
K49E;R56E;V178D | decreasing interaction strength

Variants of: B6
Conditions: with irs4_human IRS4, O14654

Variant | effect of a mutation on the interaction
K49E;R56E;V178D | decreasing interaction strength
